For data set [1], the target named is T1, HIV-1 reverse transcriptase (HIV RT) (HIV-1 (HXB2 strain), UniProt P04585;P04585 588-1147;588-1027). Description: competition (DRaCALA). The following applies: protein: commercial; copies: 1;1.
In the next data set the target is Thrombin protease (UniProt P00734;P00734 328-363;364-622). Description: DRaCALA; 8 µM thrombin; DRaCALA on dry nitrocellulose, 10 min at room temperature; binding buffer and pH not given in the material. cdiGMP G8/M/D binding (a cyclic dinucleotide ligand).
Data set [2] concerns the target T1, HIV-1 reverse transcriptase (HIV RT). Description: competition (DRaCALA); unlabeled PF1 vs 5 nM 32P-PF1; 960 nM RT. The conditions noted are these: protein: commercial; copies: 1;1.

Data on four molecules can be found in paper PMC3538687, “Detection of Cyclic Diguanylate G-Octaplex Assembly and Interaction with Proteins”.

One may read the IC50 as the concentration that inhibits the measured activity by half.

B1: S4 (structured_DNA)
DNA: CGCCTGACCCTTCAGGCGTTGGGTGGGTGGGTGGG
With B1, the binding result in data set [1] is given as “binds”.

B2: TBA25 (structured_DNA)
DNA: GGTTGGTGTGGTTGG
Turning to B2, the binding result with Thrombin protease is “binds”.

B3: 38 NT SELEX (structured_DNA)
DNA: TAATACCCCCCCTTCGGTGCAAAGCACCGAAGGGGGGG
As to B3, the binding result in data set [1] was “binds”.

B4: PF1 (structured_DNA)
DNA: AGGAAGGCTTTAGGTCTGAGATCTCGGAAT
Take B4: the IC50 in data set [2] amounted to 4 µM.
